“Also recorded” adds a separate entry of the source.
How the values were obtained:
CXCR4 [1] = target: T1, CXCR4 (Homo sapiens, UniProt P61073); experiment: Competition with 125I-SDF-1α binding to CEMx174 cells; set-up: host or cells: CEMx174 (174xCEM); settings: room temperature, 0.1% sodium azide, FIG. 7B, 7C
Method: FIGS. 7A through 7C depicts the inhibition of chemokine receptor ligand binding by peptide pre-treatment. FIG. 7A. Effect of pre-treatment with peptides 15K and 15D on the binding of MIP-1β to SupT1/CCR5 cells; FIG. 7B. Effect of pre-treatment with peptides 15K and 1SD on the binding of SDF-1α to CEMx174 cells; and FIG. 7C. Effect of pre-treatment with 15K and control peptide 15GIG on the binding of SDF-1α to CEmx174 cells. Binding studies were performed as described in Materials and Methods.
Binding assays were performed with HEK-CCR5 or HEK CXCR4 in triplicate by adding unlabeled competitor (anti-coreceptor binding peptide or control chemokine) and radiolabeled chemokine, 0.2 ng/ml (^125I-MIP-1β or SDF-1α, specific activity 2000 Ci/mmol, NEN Life Science Products) to a cell suspension (4×10^5 cells in 200 μl) in RPMI 1640 supplemented with 1% bovine serum albumin and 25 mM HEPES pH 8.0 (binding medium). Cells were then incubated at 22° C. for 40 min with continuous rotation. After incubation cells were transferred to the tubes containing 800 μl of 10% sucrose in PBS and harvested by centrifugation. The supernatant was aspirated and the cell-associated radioactivity was measured using a 1272 Wallac gamma counter. Binding assays were performed with the 174xCEM and Sup-T1 cells expressing CCR5 in duplicates by adding unlabeled competitor (peptide or control chemokine) and radiolabeled chemokine, 0.2 ng/ml (^125I-MIP-1β or ^125I-SDF-1α, specific activity 2000 Ci/mmol, NEN life Science Products) to 300 μl cell suspension (4×10^6 cells/ml) in RPMI 1640 supplemented with 1% bovine serum albumin, 0.1% sodium azide and 25 mM HEPES pH 8.0 (binding medium). Cells were then incubated at 22° C. for 30 min with continuous rotation. After incubation cells were transferred to the tubes containing 800 μl of 10% sucrose in PBS and harvested by centrifugation, the supematant was aspirated and the cell-associated radioactivity was measured using a 1272 Wallac gamma counter. The data were analyzed by nonlinear regression using the computer program GraphPad Prizm 3.0. […]

CXCR4 [2] = target: T1, CXCR4; experiment: Ca2+ mobilization in THP-1 cells in response to SDF-1α (fura-2); format: cell-based; settings: peptide 500 μM preincubated, SDF-1α 100 ng/ml, FIG. 6
Method: FIGS. 6A through 6D depict the effect of peptide pre-treatment on the mobilization of intracellular Ca^2+ in THP-1 cells in response to SDF-1α. Cells loaded with fura-2 were preincubated with peptide 15K (FIG. 6C), 15D (FIG. 6B) and 15CW (FIG. 6D) at a final concentration of 500 μM for 3 min prior to stimulation with SDF-1α (100 ng/ml).
THP-1 cells (12×10^6/ml in RPMI 1640 containing 10% FSB) were loaded in the presence of 5 μM fura-2 AM (Molecular Probes, Eugene, Oreg.) at 22° C. for 30 min in the dark. Subsequently, cells were washed three times and resuspended (10^6 cells/ml) in the buffer containing 138 mM sodium chloride, 6 mM potassium chloride, 1 mM calcium chloride, 1 mM magnesium chloride, 10 mM HEPES, pH 7.4,5 mM glucose, and 0.1% bovine serum albumin. 1.93 ml of loaded cells was transferred into a quartz cuvette. 50 μl of a peptide stock solution (2×10^−2 M) was added to the cells, and after 3 min of incubation 20 μl of human SDF-1α (10 μg/ml, PeproTech) was added to a stirred cuvette. The measurements were performed using luminescence spectrophotometer LS50 B (Perkin-Elmer). Ca^2+ mobilization in the cells in response to SDF-1α was measured by analysis of the ratio of fluorescence emitted at 510 nm after sequential excitation at 340 and 380 nm.
The increase of intracellular Ca^2+ concentration mediated by a chemokine receptor in response to a cognate chemokine is a reliable assay for measurement of chemokine agonist activity. The human monocytic cell line THP-1 expresses a high level of CXCR4 and responds well to SDF-1α stimulation (FIG. 6A), so these cells were used to determine whether peptides 15D and 15K could block the activation of CXCR4.

HIV-1IIIB = HIV-1IIIB infection of PBMC, p24 ELISA; format: cell-based; settings: peptide 1 hr before HIV-1IIIB, p24 after 48 hr; FIG. 4
Method: Peripheral blood mononuclear cells were treated with designated concentrations of peptide for a period of 1 hr prior to addition of HIV-1IIIB. After 2 hr, cells were washed, and viral replication was determined after 48 hr by analysis of p24 levels. Results are representative of 4 independent experiments.
PBMCs were obtained from whole blood of normal donors and isolated by Ficoll-Paque Plus (Pharmacia Biotech, Piscataway, N.J.) density gradient centrifugation, and plated at a cell density of 2×10^6 cells/ml. Monocyte-derived macrophages (MDM) were generated from adherent human peripheral blood mononuclear cells by culture for 7 days with M-CSF (100 ng/ml). Cultures were maintained in RPMI-1640 medium (Life Technologies, Rockville, Md.) supplemented with 10% heat-inactivated endotoxin-free FCS (Hyclone, Logan, Utah), 10 μg/ml gentamicin, and 1 mM glutamine. Cells were treated with designated concentrations of the exemplary peptides 15K or 15D, and after 1 hr cells were infected with HIV-1IIIB (T cell tropic) or HIV-1JRFL (monocyte tropic) at an multiplicity of infection (MOI) of 0.1. After 2 hr, cells were washed, and cultured for additional 48-72 hr, followed by analysis of HIV replication as determined by quantification of accumulated p24 in the supernatant. The production of p24 was determined by conventional sandwich ELISA, using ELISA plates pre-coated with capture anti-p24 antibodies provided by the AIDS Vaccine Program (SAIC Frederick, NCI-FCRDC, Frederick, Md.). The captured p24 antigen was detected using rabbit anti-HIV-1 anti-p24 antibody, and a secondary goat anti-rabbit IgG (peroxidase-labeled) antibody. The captured p24 protein was detected using a 3,3′,5,5′-tetramethylbenzidine and hydrogen peroxide detection system (KPL Laboratories, Gaithersburg, Md.). The reaction was read spectrophotometrically at 450 nm. No cytotoxicity was detectable following treatment of PBMC with the peptides even at a concentration of 100 μg/ml.
In view of the foregoing binding inhibition studies, and considering the homology between the 15K and 15D peptides and the CXCR4 ligand SDF-1α, it was further undertaken to determine the capacity of the synthetic peptides to inhibit CXCR4 co-receptor function. In particular, experiments were carried out to assess the ability of 15K or 15D to alter the infection of PBMCs with the T cell-tropic […] strain. […] Significant inhibition of HIV-1 infection was detected with concentrations of peptides as low as 10 ng/ml.

CXCR4 [3] = target: T1, CXCR4; experiment: Binding of anti-CXCR4 antibody 12G5 to CEMx174 cells (flow cytometry); set-up: host or cells: CEMx174 (174xCEM); settings: CEMx174 cells, preincubation 60 min 22° C.; FIG. 5
Method: FIG. 5A. Dose dependent effect of peptide 15K in comparison with SDF-1α. FIG. 5B. The comparison of the effects of 15K and 15D. FIG. 5C. The comparison of the effects of 15K and 15KS. Cells were preincubated at 22° C. with peptides at designated concentrations of SDF-1α for 60 min. Then cells were incubated with FITC-labeled anti-human CXCR4 monoclonal antibodies 12G5 for 40 min at 22° C. and washed with FACS buffer prior to flow cytometry.
CEMx174 cells were pelleted and resuspended at 10^6 cells/ml in PBS containing 1% BSA and 0.1% sodium azide (FACS buffer). Cells were then preincubated with designated concentrations of peptides or SDF-1-α (1 μg/ml) at 22° C. for 60 min. FITC-labeled anti-human CXCR4 antibody (clone 12G5, BD PharMingen, San Diego, Calif.) was added to the cells per the manufactures instructions and further incubated at 22° C. for 40 minutes. Cells were extensively washed with FACS buffer and analyzed using a FACS Calibur flowcytometer (Becton Dickinson). HEK/CCR5 cells were suspended in Dulbecco's PBS containing 1% FCS and 0.05% NaN3 (10^4 cells in 100 μl) and incubated with or without 5 μg of MIP-1β (PeproTech, Rocky Hill, N.J.), 0.1 mM peptide 15D or 15K for 45 min at 22° C. Cells were then treated with FITC-conjugated anti-human CCR5 antibody (2D7; BD PharMingen, San Diego, Calif.), and incubated for 30 min at 22° C. Cells were washed twice, and analyzed using a FACScan flow cytometer (Becton Dickinson Immunocytometry Systems, San Jose, Calif.).
To determine if peptides 15D and 15K interact directly with chemokine receptors the effect of these and control peptides on the binding of anti-chemokine receptor antibodies to CXCR4 and CCR5 was studied. The monoclonal antibody 12G5 recognizes a conformational extracellular epitope on CXCR4. This antibody blocks the infectivity of some X4 strains of HIV-1 and HIV-2 (Endres et al., Cell 87:745-756, 1996; Hoxie et al., J. Reprod. Immunol. 41:197-211(1998); McKnight et al., J. Virol. 74:1692-1696(1997), 19, 26). […] Further, the binding of 12G5 to CXCR4 receptor-expressing cells is prevented by anti-HIV compounds. […] 73:2752-2761, 1999. To determine the importance of the particular amino acid sequence of the inhibitory activity of the peptides. The effects of peptide 15K and the corresponding scrambled peptide 15KS on binding of 12G5 to CXCR4 was compared. […] Apparently there is a direct correlation between the ability of 15K to inhibit the anti-CXCR4 antibody binding and its ability to inhibit HIV-1 infectivity since the scrambled peptide 15KS with the same amino acid comparison has reduced ability to manifest both these activities.

T1 sequence (P61073 whole entry): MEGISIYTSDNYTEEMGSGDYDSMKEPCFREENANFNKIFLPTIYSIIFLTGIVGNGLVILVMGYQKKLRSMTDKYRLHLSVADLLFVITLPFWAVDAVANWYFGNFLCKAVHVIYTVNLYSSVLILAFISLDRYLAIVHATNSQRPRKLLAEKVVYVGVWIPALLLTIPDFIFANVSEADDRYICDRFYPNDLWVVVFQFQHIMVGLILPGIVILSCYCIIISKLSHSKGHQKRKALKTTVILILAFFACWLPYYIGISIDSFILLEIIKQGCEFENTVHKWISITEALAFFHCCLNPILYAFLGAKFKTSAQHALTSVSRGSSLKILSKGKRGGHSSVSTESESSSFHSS

G I G D P V T C L K S G A I A (GIGDPVTCLKSGAIA) [Peptide 15GIG, reference compound]
inhibition of SDF-1α binding to CXCR4 (CXCR4 [1]): significantly lower competing activity

I R K A H C W I D R A D N N S [Peptide 15CW, reference compound]
inhibition of Ca2+ mobilization in response to SDF-1α (CXCR4 [2]): less effective

K I N S W R A D N I H C K A R (KINSWRADNIHCKAR) [Peptide 15KS, reference compound]
inhibition of T cell-tropic HIV-1 infection of PBMCs (p24) (HIV-1IIIB): significantly less inhibition
inhibition of 12G5 antibody binding to CXCR4 (CXCR4 [3]): significantly less inhibitory activity; also recorded: a low level of inhibitory activity
